2 proteins from paper PMC6921004, “Structural Characterization of Full-Length Human Dehydrodolichyl Diphosphate Synthase Using an Integrative Computational and Experimental Approach” (Biomolecules, 2019) can be followed below.

Substrate in data set [1]: C=C(C)CCO[P@@](=O)(O)OP(=O)(O)O
Description: purified protein. The following applies: 10 μM FPP, 0.5 μM protein, labelled compound (^14C), Tris-HCl pH 7.5, 150 mM NaCl, 20 mM β-mercaptoethanol, 0.1% Triton X-100, 30 °C, homodimer without NgBR.

Substrate in data set [2]: CC(C)=CCC/C(C)=C/CC/C(C)=C/CO[P@@](=O)(O)OP(=O)(O)O
Description: purified protein. The data set is classed as biochemical, Homo sapiens. The following applies: 20 μM ^14C-IPP, 0.1 μM protein, Tris-HCl pH 7.5, 150 mM NaCl, 20 mM β-mercaptoethanol, 0.1% Triton X-100, 30 °C, homodimer without NgBR.

Data set [3] deals with the molecule itself. Nature of the data set: SEC-MALS; Superdex-200 increase 10/300 GL; Tris-HCl pH 7.5, 150 mM NaCl, 20 mM beta-mercaptoethanol, 0.02% Triton X-100; sample 2 mg/mL, 50 uL. A general note: SEC sorts molecules by how far they enter the pores of the column.

B1: human dehydrodolichyl diphosphate synthase (DHDDS), full-length homodimer (Homo sapiens) (protein)
chain: MSWIKEGELSLWERFCANIIKAGPMPKHIAFIMDGNRRYAKKCQVERQEGHSQGFNKLAETLRWCLNLGILEVTVYAFSIENFKRSKSEVDGLMDLARQKFSRLMEEKEKLQKHGVCIRVLGDLHLLPLDLQELIAQAVQATKNYNKCFLNVCFAYTSRHEISNAVREMAWGVEQGLLDPSDISESLLDKCLYTNRSPHPDILIRTSGEVRLSDFLLWQTSHSCLVFQPVLWPEYTFWNLFEAILQFQMNHSVLQKARDMYAEERKRQQLERDQATVTEQLLREGLQASGDAQLRRTRLHKLSARREERVQGFLQALELKRADWLARLGTASA
notes: full-length; expressed in E. coli T7 express from pET-32b as thioredoxin-6xHis fusion, tag and fusion removed by TEV protease; without NgBR
As to B1, the Km in “purified protein [1]” was found to be 9.3 ± 2.8 µM; in “purified protein [2]”, 0.45 ± 0.1 µM. Besides, the kcat in the data set “purified protein [1]” and in “purified protein [2]” was 0.0011 ± 0.0001 s⁻¹ each time.

B2: Dehydrodolichyl diphosphate synthase (DHDDS), full-length human (enzyme, UniProt Q86SQ9 1-333, looked up)
chain: MSWIKEGELSLWERFCANIIKAGPMPKHIAFIMDGNRRYAKKCQVERQEGHSQGFNKLAETLRWCLNLGILEVTVYAFSIENFKRSKSEVDGLMDLARQKFSRLMEEKEKLQKHGVCIRVLGDLHLLPLDLQELIAQAVQATKNYNKCFLNVCFAYTSRHEISNAVREMAWGVEQGLLDPSDISESLLDKCLYTNRSPHPDILIRTSGEVRLSDFLLWQTSHSCLVFQPVLWPEYTFWNLFEAILQFQMNHSVLQKARDMYAEERKRQQLERDQATVTEQLLREGLQASGDAQLRRTRLHKLSARREERVQGFLQALELKRADWLARLGTASA
notes: Dehydrodolichyl diphosphate synthase (DHDDS), human, UniProt Q86SQ9, full length; synthesized gene cloned into pET-32b between NdeI and BamHI; Expressed as a TRX fusion with a 6xHis-tag and a TEV site; the tag and the fusion were removed by TEV protease; also called hDHDDS; human DHDDS; source: E. coli T7 express, purified (TALON-Superflow, TEV cleavage, second TALON-Superflow, Superdex-200 SEC)
In the case of B2, the “stoichiometry N” value in data set [3] turned out to be 2.

The term Km denotes the substrate concentration at which the rate is half of its maximum. The term kcat denotes the maximal rate divided by the concentration of active sites. In general, stoichiometry N refers to the number of molecules, sites or subunits per partner or assembly.
